Laboratory results from patent US20050260697.

Tests used:
[1] = target: human cardiac Troponin-I3 (UniProt P19429)
[2] = target: human cardiac Troponin-T2 (UniProt P45379)

human cardiac Troponin-I3, sequence (P19429 whole entry, looked up): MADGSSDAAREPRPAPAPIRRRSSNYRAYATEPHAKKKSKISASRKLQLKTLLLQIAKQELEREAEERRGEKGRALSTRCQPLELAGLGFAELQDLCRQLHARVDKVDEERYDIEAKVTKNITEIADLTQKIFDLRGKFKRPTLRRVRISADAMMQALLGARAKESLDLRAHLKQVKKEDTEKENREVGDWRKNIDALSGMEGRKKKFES

calpain-2 was tested, and the “in vitro protease digestion, breakdown products on gels” value [1] was “human cardiac Troponin-T2 and Troponin-13 were cleaved by calpain-2 and caspase-3 proteases, producing unique breakdown products”, the “stated: cleaves (breakdown bands on a gel)” value [1] was “the Tn-I3 (24 kDa) band stays in both Calp-2 lanes (rising amount); arrows A and B mark two faint products below it at the higher-amount lane” and the “in vitro protease digestion, breakdown products on gels” value [2] was “human cardiac Troponin-T2 and Troponin-13 were cleaved by calpain-2 and caspase-3 proteases, producing unique breakdown products”. The “stated: cleaves (breakdown bands on a gel)” value [2] was “in the two Calpain-2 lanes (rising amount) the Troponin-T2 band at the 30 kDa mark fades and a band b appears between the 15 and 10 kDa marks; arrowheads a, b and c mark products between 15 and 10 kDa beside the higher-amount lane; none of these is in the untreated lane”.
